Laboratory results from patent publication US20230235078A1 (University of Texas, published 2023).
Residue numbers refer to the chain shown, from its start.

T1: human DDR2 ECD (human, UniProt Q16832 22-399)
T1 construct: extracellular domain; also called DDR2 ECD protein
T1 sequence (looked up): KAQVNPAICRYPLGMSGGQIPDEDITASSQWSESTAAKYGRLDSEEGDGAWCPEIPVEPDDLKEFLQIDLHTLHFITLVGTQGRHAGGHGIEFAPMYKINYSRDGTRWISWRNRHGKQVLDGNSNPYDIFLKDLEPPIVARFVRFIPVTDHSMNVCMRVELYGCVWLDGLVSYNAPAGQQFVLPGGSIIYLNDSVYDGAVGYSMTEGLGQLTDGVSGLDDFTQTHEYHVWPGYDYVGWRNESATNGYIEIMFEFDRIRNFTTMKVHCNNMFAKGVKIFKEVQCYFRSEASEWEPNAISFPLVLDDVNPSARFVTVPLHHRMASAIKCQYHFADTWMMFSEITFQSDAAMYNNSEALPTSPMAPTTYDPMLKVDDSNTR

B1: DDR1-9Hu-Ab2 (antibody, V domains shown)
VH: QVQLVESGGRVVQPGRSLRLSCTASGFSLNRYYMLWVRQAPGKGLEWIGTISYGDTTYYASWAKGRFTISRDNSKNTLYLQMNSLRAEDTAVYYCARADTGDNGYLGLQLWGQGTLVTVSS
VL: DIQMTQSPSSVSASVGDRVTITCRASQSIGSVLAWYQQKPGKAPKLLIYGVFSLQSGVPSRFSGSGSGTDFTLTISSLQPEDFATYYCQYIPYGSSPFGGGTKVEIK
notes: Humanized form of DDR1-9
B2: DDR1-13 (antibody, V domains shown)
VH: EQSVEESGGRLVTPGGSLTLTCTASGFSLNNYAIIWVRQAPGKGLEYIGIFNNGDIYYANWAKGRFTISKTSTTVGLKIVSPTTEDTATYFCARTGYRTGGWLWGPGTLVTISS
VL: ELVMTQTPSPVSAAVGGTVSISCQSSKSVYNNNALSWFQQKPGQPPKVLIYGVSTLDSGVSSRFSGSGYGTEFTLTISDVQCDDAATYYCAGDYSDISDNNFGGGTELEIK
notes: Rabbit variable domains; Detected with anti-rabbit HRP antibody in the DDR2 ELISA; also called DDR1-13K/DDR1-13H
B3: DDR1-34 (antibody, V domains shown)
VH: QSVKESGGGLVKPEGSLTLTCKASGFDLSSYYYMCWVRQAPGKGLEWIACIYTSSGATWYANWAKGRFTISKTSSTTVTLQMTALTAADTATYFCARGGWCDFNLWGPGTLVTISS
VL: ELDLTQTPASVSAAVGGTVTISCQSSENLYKDNYLAWYQQKPGQPPKLLIYGASNLASGVPSRFKGSGSGTQFTLTISDLECDDAATYYCAGGYDSVVDFGGGTEVVVK
notes: Rabbit variable domains; Detected with anti-rabbit HRP antibody in the DDR2 ELISA; also called DDR1-34K/DDR1-34H
B4: DDR1-21 (antibody, V domains shown)
VH: QSLEESGGRLVTPGTPLTLTCTVSGFSLSSYGVHWVRQAPGKGLDWIGKIYPSGSIYYSSWAKGRFTISKTSTTVDLKMTSLTTEDTATYFCVRYLTGSSDLHLWGPGTLVTISS
VL: ELVLTQTPSSTSAAVGGTVTISCQSSQSVVDKNWLAWYQQKPGQPPKLLIYEASKLASGVPPRFSGSGSGTQFTLTISGVQCDDAATYYCAGDFESGVSGFGGGTEVEIK
notes: Rabbit variable domains; Detected with anti-rabbit HRP antibody in the DDR2 ELISA; also called DDR1-21K/DDR1-21H
B5: DDR1-22 (antibody, V domains shown)
VH: QSVKESGGRLVTPGGSLTLTCTVSGFSLSDYAMIWVRQAPGKGLEYIGIINNGDIYYATWAKGRFTISETSSTTMGLNIISPTTEDTATYFCARPGYRTGIWLWGPGTLVTISS
VL: ELVLTQTPSPVSAAVGGTVTINCQSSKNIYNNNALSWFQQKPGQPPKLLIYGASTLASGVPSRFKGSGSGTQFTLTISDVQCDDAATYYCAADYSDISDNNFGGGTEVVVK
notes: Rabbit variable domains; Detected with anti-rabbit HRP antibody in the DDR2 ELISA; also called DDR1-22K/DDR1-22H
B6: DDR1-15 (antibody, V domains shown)
VH: SQSLEESGGDLVKPGASLTLTCTASTFSFNSRYWTCWVRQAPGKGLEWIGCINNGDISTYYASWATGRFTISKSSSTTVTLHMTSLTAADTATYFCAKGGNLAGDCYGLWGPGTLVTISS
VL: ELVMTQTPASVEVAVGGTVTIKCQASQTIYSSLAWYQQKPGQPPKLLIYKASTLASGVPSRFKGSGSGTQFTLTISGVQCDDAATYYCQQGSSISNVDKNAFGGGTEVEIK
notes: Rabbit variable domains; Detected with anti-rabbit HRP antibody in the DDR2 ELISA; also called DDR1-15K/DDR1-15H
B7: DDR1-20 (antibody, V domains shown)
VH: QSVKESGGGLFKPMDTLTLTCTVSGFSLSDYAMSWVRQAPGKGLEWIGIINSRDDTGYASWAKGRFTISKTSSTTVDLRITSPTTEDTATYFCAREDSSIPFIVGNYYGMDLWGPGTLVTVSS
VL: ELDLTQTPASVSAAVGGTVTINCQSSQIIDHDHLSWYQQKPGQRPKLLIYRASTLTSGVPSRFKGSGSGTDFTLTISDLECADVATYYCQNNNGMTVSDFNAFGGGTEVEIK
notes: also called DDR1-20K/DDR1-20H
B8: DDR1-17 (antibody, V domains shown)
VH: SSVEESGGRLVAPGTPLTLTCTVSGFSLNRYAMSWVRQAPGKGLEWIGIIGSSGSTYYASWAKGRFTISKTSTTVDLKITSPTTEDTATYFCARDLDDSYGYTYATGMDIRLDLWGQGTLVTVSS
VL: ELVLTQTPASVSEPVGGTVTIKCQASQSIGSYLSWYQQKAGQPPKRLIYEASTLASGVPSRFSGSGSGTDFTLTISDLECADVATYYCQNNNGMTVSDFNAFGGGTEVEIK
notes: also called DDR1-17K/DDR1-17H
B9: DDR1-6 (antibody, V domains shown)
VH: SQSLKESGGDLVKPGASRTLTCIAPGFSFSSSYYMCWVRQAPGKGLEWIACIYASSGSTYYASWAKGRFTISKTSSTTVTLQMTTLTAADTATYFCAAILGADYRLTRLDLWGQGTLVTVSS
VL: ELVMTQTPSPVSAAVGGTVTISCQSSQSVYSNYLSWYQQKPGQPPKLLIYETSTLASGVPSRFKGSGSGTQFTLTISDVQCDDAATYYCQGGYSEIIENTFGGGTEVEIK
notes: also called DDR1-6K/DDR1-6H
B10: DDR1-5 (antibody, V domains shown)
VH: QSVKESGGRLVTPGTPLTLTCTVSGFTLSNNAISWVRQAPGKGLEWIGIIYASGRTYYATWAKGRFTISKTSTTVDLKMTSPTTEDTATYFCARGDTETDYGIPYFDLWGPGTLVTISS
VL: ELVLTQTPASVSEPVGGTVTIKCQASQTISSWLSWYQQKPGQPPKLLIYYAFNLASGVPSRFKGSGSGTEYTLTISDLECADAATYYCQCTYGSGSSSSYGCAFGGGTELEIK
notes: also called DDR1-5K/DDR1-5H
B11: DDR1-1 (antibody, V domains shown)
VH: QSVEESGGRLVTPGTPLTLTCTVSGFSLSRYAMTWVRQAPGKGLEWIGIIGSSGLTYFATWAKGRFTISKTSTTVDLKITSPTTEDTATYFCARGMWYDDSDDYEDYFNLWGPGTLVTISS
VL: ELVLTQTPASVSAAVGGTVTINCQASQNIYSNLAWYQQKPGQPPKLLIYGASNLESGVPSRFKGSGSGTQFTLTISDLECDDAATYYCQSGYYSSSTDIAFGGGTEVVVK
notes: also called DDR1-1K/DDR1-1H
B12: DDR1-23 (antibody, V domains shown)
VH: SQSVKESGGDLVKPGASLTLTCKASGFDLRSYYYMCWVRQAPGKGLEWIACIHGGEGNTYYASWAKGRFTISKTSSTAVTLQMTSLTAADTATYFCARGGWTNYFWGPGTLVTVSS
VL: ELVLTQTPSSVSAAVGGTVTISCQSSQSVYSNNYLAWYQQKPGQPPKLLIYAASTLASGVPSRFKGSGSGTQFTLTISGVQCDDAAVYYCLGGYNDDANFGGGTEVEIK
notes: also called DDR1-23K/DDR1-23H
B13: DDR1-26 (antibody, V domains shown)
VH: EQSLKESGGDLVKPGASLTLTCTASGFDLSSNYYMCWVRQAPGKGPEWIACIYSSNTRTWYARWAKGRFTISKTSSTAVTLQMTSLTAADTATYFCARGGWTNYLWGPGTLVTISS
VL: B12 VL with V3D, Q27E, Y34H, K65S, E107V, I108V
notes: also called DDR1-26K/DDR1-26H
B14: DDR1-28 (antibody, V domains shown)
VH: QSVEESGGRLVTPGTPLTLTCTVSGFSLSSHDMIWVRQAAGKGLEWIGLIISSGNTWYASWAKGRFTISKTSTTVDLKMTSLTTEDTATYFCARDVYSGASPWGPGTLVTISS
VL: ELDLTQTPASVEAAVGGTVTIKCQASQSIDNNDLAWYQQKPGQPPNLLISRTSTLASGVSSRFKGSGSGTEFTLTISDLECADAATYYCQSYCVNTYGYTFGGGTEVVVK
notes: also called DDR1-28K/DDR1-28H
B15: DDR1-12 (antibody, V domains shown)
VH: QSLEESGGRLVTPGTPLTLTCTVSGIDLSNTWMNWVRQAPGKGLEWIGVITDSGTTYYANWAKGRFTISRTSTTVDLKMPSLTTEDTATYFCGRDPGDITSGTNDLWGPGTLVTISS
VL: ELVLTQTPASVSEPVGGTVTIKCQASQTIYSNLAWYQQKPGQRPKLLIYQASKLASGVPSRFKGSGSGTEYTLTISDLECADAATYYCQSYYGADDYTFGGGTEVVVK
notes: also called DDR1-12K/DDR1-12H
B16: DDR1-11 (antibody, V domains shown)
VH: QSLEESGGDLVKPGASLTLTCTASGFSFSSGYYMCWVRQAPGKGLEWIACIYTGRTDFTDYASWAKGRFTISKTSSTTVTLQLTTLTAADTATYFCARGDYSGGVGGNYWLDLWGQGTLVTISS
VL: ELVMTQTASPVSAAVGGTVTINCQASQSIGSTYLSWYQQKPGQPPKLLIYKASILASGVPSRFSGSGSGTEYTLTISGVQCDDAATYYCLYGGFGSSTGDAFGGGTVLVVK
notes: also called DDR1-11K/DDR1-11H
B17: DDR1-29 (antibody, V domains shown)
VH: QSVKSGGGLVKPGASLTLTCKASTFSFNSRYWTCWVRQAPGKGLEWIGCINNGDITTYYTNWATGRFTISKSSSTTVTLQMTSLTAADTATYFCAKGGNLAGDCYGLWGPGTLVTISG
VL: ELVMTQTPASVEAAVGGTVTIKCQASQSISNHLGWYQQKPGQPPKLLIYRASTLESGVSSRFKGSGSGSEFTLTISDLECADAATYYCQSYYIINRSNYANSFGGGTEVEIK
notes: also called DDR1-29K/DDR1-29H

These binders were tested against T2, Human DDR1 extracellular domain (ECD) protein (human, UniProt Q08345 21-417) (assay: BLI (Octet); target not given, recombinant DDR1 assumed).
T2 construct: it is treated here as the same molecule; also called recombinant human DDR1 ECD; huDDR1 ECD; not shown: 6xHIS-tag
T2 sequence (Q08345 21-417): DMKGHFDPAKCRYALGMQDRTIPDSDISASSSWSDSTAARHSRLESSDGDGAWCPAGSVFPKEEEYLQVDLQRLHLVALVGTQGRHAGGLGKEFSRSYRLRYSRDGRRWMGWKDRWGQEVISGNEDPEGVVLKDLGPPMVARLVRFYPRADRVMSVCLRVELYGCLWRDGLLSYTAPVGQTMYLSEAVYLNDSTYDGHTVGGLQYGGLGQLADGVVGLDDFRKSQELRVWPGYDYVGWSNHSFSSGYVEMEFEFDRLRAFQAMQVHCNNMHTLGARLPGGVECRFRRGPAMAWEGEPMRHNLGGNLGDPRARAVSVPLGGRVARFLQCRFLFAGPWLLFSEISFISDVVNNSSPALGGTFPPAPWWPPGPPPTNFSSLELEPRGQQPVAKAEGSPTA
A Kd of 0.77 nM, a koff of 0.000113 s⁻¹ and a kon of 146000 M⁻¹ s⁻¹ were found for B1 in this work.

What follows are binders tested against T1, human DDR2 ECD (assay: ELISA, DDR2 ECD coated, antibody at 1 ug/ml, HRP anti-rabbit detection).
Procedure: FIG. 19. Determination of cross-reactivity of a panel of monoclonal antibodies to human DDR2 using ELISA method. DDR1 or DDR2 ECD protein was coated on a high binding plate and each of monoclonal antibodies at 1 ug/ml concentration was added for binding detection with HRP conjugated anti-rabbit antibody (Jackson ImmuneResearch, PA).
To determination cross-reactivity of a panel of anti-human DDR1 monoclonal antibodies to human DDR2 ECD, an ELISA method was used. DDR1 ECD or DDR2 ECD protein was coated on a high binding plate and each of monoclonal antibodies was applied at 1 ug/ml concentration and binding was detected using HRP conjugated anti-rabbit antibody (Jackson ImmuneResearch, PA). Monoclonal antibodies DDR1-3; DDR1-9; DDR1-10; DDR1-14 and DDR1-33 were specific for DDR1 epitopes, while clones DDR1-13; DDR1-15; DDR1-21; DDR1-22 and DDR1-34 appear to recognize epitopes present on both DDR1 and DDR2 ECD.
B2: binds. B3: binds. B4: binds. B5: binds. B6: binds.

These binders were tested against T2, Human DDR1 extracellular domain (ECD) … (assay: ELISA on DDR1, antibody at 10 and 1 µg/ml).
B7: binds. B2: binds. B8: binds. B9: binds. B10: binds. B11: binds. B12: binds. B13: binds. B3: binds. B14: binds. B4: binds. B5: binds. B6: binds. B15: binds. B16: binds. B17: binds.
